Assay results reported in article PMC5955610 (Structure (London, England : 1993), 2010).

Target: T1, RMI1C (C-terminal domain of human RMI1, residues 475-625) (human, UniProt Q9H9A7 475-625, Se-Met substituted in the crystals)
T1 sequence (looked up): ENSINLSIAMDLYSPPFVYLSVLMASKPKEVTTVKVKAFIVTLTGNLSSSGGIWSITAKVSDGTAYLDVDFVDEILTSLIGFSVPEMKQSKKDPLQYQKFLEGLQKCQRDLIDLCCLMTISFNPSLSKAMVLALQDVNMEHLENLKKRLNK
Test: crystal structure + SEC

B1: RMI2 (residues 6-147) (domain or fragment, human, UniProt Q96E14 6-147, looked up)
chain: DSFSGGPAGVRLPRSPPLKVLAEQLRRDAEGGPGAWRLSRAAAGRGPLDLAAVWMQGRVVMADRGEARLRDPSGDFSVRGLERVPRGRPCLVPGKYVMVMGVVQACSPEPCLQAVKMTDLSDNPIHESMWELEVEDLHRNIP
modifications: Se-Met substituted in the crystals
  stoichiometry N: 1 RMI1C:RMI2
